Measurements from paper PMC11187563, “The importance of tyrosines in multimers of cyclic RGD nonapeptides: towards αvβ6-integrin targeted radiotherapeutics” (RSC Medicinal Chemistry, 2024).
Where two headings read alike, the source gives them in different places.

Key:
[1] = Ex vivo biodistribution of 177Lu-labeled peptide tetramers in H2009 xenografted SCID mice; details: CB17 SCID, mouse, iv, total radioactivity, H2009 bearing SCID mice; for tissue uptake at 1.5 h / tissue to tissue ratio at 1.5 h: 90 pmol, 90 min p.i.; for tissue uptake at 72 h / tissue to tissue ratio at 72 h: 92 pmol, 3 d p.i.
Procedure: (§1) The biodistribution of the ^177Lu-labeled peptide conjugates was investigated in severe combined immunodeficiency (SCID) mice bearing subcutaneous xenografts of the αvβ6-integrin expressing human lung adenocarcinoma cell line H2009 on their right shoulders. Two representative time points after i.v. administration (p.i.) were evaluated.
(§2) Analytical HPLC was performed on a Shimadzu (Kyoto, Japan) Prominence HPLC system equipped with either a Dr. Maisch ReproSil Pur C18 AQ 150 × 4.6 mm, 5 μm, 120 Å (AC1) or a Phenomenex Kinetex C18 150 × 4.6 mm 5 μm column (AC2). Semipreparative HPLC was performed on a Shimadzu HPLC system equipped with either a Dr. Maisch ReproSil Pur C18 AQ 250 × 10 mm, 5 μm, 120 Å column with 5 mL min^−1 flow (PC1) or a Dr. Maisch ReproSil Pur C18 150 × 30 mm, 5 μm, 120 Å column with 20 mL min^−1 flow (PC2). Solvents for both systems were water (A) and acetonitrile (B) each supplemented with 0.1% (vol) trifluoroacetic acid (TFA). ESI-MS spectra (positive mode) were recorded on a Shimadzu LC-MS 2020 single quadrupol mass spectrometer. Solvents for MS applications were water (A) and acetonitrile (B) each supplemented with 0.1% (vol) formic acid. The other experimental procedures (determination of log D7.4, cultivation of H2009 human lung adenocarcinoma cells, generation of tumor xenografts in CB17 SCID mice, and biodistribution) were performed as described before.[28] All animal experiments have been carried out according to applicable law and institutional guidelines of Technical University of Munich, and were approved by the responsible local authority (Regierung von Oberbayern). The H2009 cells were regularly authenticated and tested for mycoplasma contamination. DOTPI-tetraazide,[43]FF (previously termed AvB6),[29]FY,[34] and YY (also referred to as Tyr2-alkyne)[36] were synthesized as described previously.

[2] = test system: αvβ6-integrin expressing human lung adenocarcinoma cell line H2009 xenografts; experiment: as above; details: H2009 bearing SCID mice
Procedure: as §1, §2

[3] = H2009 tumor, read-out: Tumor H2009 %IA/g
[4] = adrenals, read-out: Adrenals %IA/g
[5] = heart (myocard), read-out: Heart (myocard) %IA/g
[6] = kidneys, read-out: Kidneys %IA/g
[7] = large intestine (empty), read-out: Large intestine (empty) %IA/g
[8] = pancreas, read-out: Pancreas %IA/g
[9] = small intestine (empty), read-out: Small intestine (empty) %IA/g
[10] = stomach (empty), read-out: Stomach (empty) %IA/g
[11] = tumor/blood, read-out: tumor/organ ratio, Blood
[12] = tumor/heart (myocard), read-out: tumor/organ ratio, Heart (myocard)
[13] = tumor/liver, read-out: tumor/organ ratio, Liver
[14] = tumor/lung, read-out: tumor/organ ratio, Lung
[15] = tumor/pancreas, read-out: tumor/organ ratio, Pancreas
[16] = tumor/spleen, read-out: tumor/organ ratio, Spleen

## CC(C)C[C@@H]1NC(=O)[C@H](CC(=O)O)NC(=O)CNC(=O)[C@H](CCCNC(=N)N)NC(=O)[C@H](Cc2ccccc2)NC(=O)[C@H](CCCCNC(=O)CCc2cn(CCCNC(=O)CCP(=O)(O)CN3CCN(CP(=O)(O)CCC(=O)NCCCn4cc(CCC(=O)NCCCC[C@H]5C(=O)N[C@@H](Cc6ccccc6)C(=O)N[C@@H](CCCNC(=N)N)C(=O)NCC(=O)N[C@@H](CC(=O)O)C(=O)N[C@@H](CC(C)C)C(=O)N[C@@H](C)C(=O)N[C@@H](Cc6ccccc6)C(=O)N6CCC[C@@H]6C(=O)N5C)nn4)CCN(CP(=O)(O)CCC(=O)NCCCn4cc(CCC(=O)NCCCC[C@H]5C(=O)N[C@@H](Cc6ccccc6)C(=O)N[C@@H](CCCNC(=N)N)C(=O)NCC(=O)N[C@@H](CC(=O)O)C(=O)N[C@@H](CC(C)C)C(=O)N[C@@H](C)C(=O)N[C@@H](Cc6ccccc6)C(=O)N6CCC[C@@H]6C(=O)N5C)nn4)CCN(CP(=O)(O)CCC(=O)NCCCn4cc(CCC(=O)NCCCC[C@H]5C(=O)N[C@@H](Cc6ccccc6)C(=O)N[C@@H](CCCNC(=N)N)C(=O)NCC(=O)N[C@@H](CC(=O)O)C(=O)N[C@@H](CC(C)C)C(=O)N[C@@H](C)C(=O)N[C@@H](Cc6ccccc6)C(=O)N6CCC[C@@H]6C(=O)N5C)nn4)CC3)nn2)N(C)C(=O)[C@H]2CCCN2C(=O)[C@H](Cc2ccccc2)NC(=O)[C@H](C)NC1=O [Compound 177Lu-Y0, metal not drawn]
[1]; [3]
  tissue uptake at 1.5 h: 3.23 %ID/g
  tissue uptake at 72 h: 1.72 %ID/g
[1]; [4]
  tissue uptake at 1.5 h: 1.36 %ID/g
  tissue uptake at 72 h: 0.82 %ID/g
[1]; blood, read-out: Blood %IA/g
  tissue uptake at 1.5 h: 1.2 %ID/g
  tissue uptake at 72 h: 0.02 %ID/g
[1]; bone, read-out: Bone %IA/g
  tissue uptake at 1.5 h: 1.45 %ID/g
  tissue uptake at 72 h: 0.42 %ID/g
[1]; [5]
  tissue uptake at 1.5 h: 1.13 %ID/g
  tissue uptake at 72 h: 0.43 %ID/g
[1]; [6]
  tissue uptake at 1.5 h: 208 %ID/g
  tissue uptake at 72 h: 243 %ID/g
[1]; [7]
  tissue uptake at 1.5 h: 3 %ID/g
  tissue uptake at 72 h: 1.19 %ID/g
[1]; liver, read-out: Liver %IA/g
  tissue uptake at 1.5 h: 5.03 %ID/g
  tissue uptake at 72 h: 2.61 %ID/g
[1]; lung, read-out: Lung %IA/g
  tissue uptake at 1.5 h: 3.59 %ID/g
  tissue uptake at 72 h: 1.22 %ID/g
[1]; muscle, read-out: Muscle %IA/g
  tissue uptake at 1.5 h: 0.53 %ID/g
  tissue uptake at 72 h: 0.29 %ID/g
[1]; [8]
  tissue uptake at 1.5 h: 0.49 %ID/g
  tissue uptake at 72 h: 0.31 %ID/g
[1]; [9]
  tissue uptake at 1.5 h: 1.67 %ID/g
  tissue uptake at 72 h: 0.82 %ID/g
[1]; spleen, read-out: Spleen %IA/g
  tissue uptake at 1.5 h: 2.22 %ID/g
  tissue uptake at 72 h: 1.58 %ID/g
[1]; [10]
  tissue uptake at 1.5 h: 4.15 %ID/g
  tissue uptake at 72 h: 2.63 %ID/g
[1]; tumor / adrenals, read-out: tumor/organ ratio, Adrenals
  tissue to tissue ratio at 72 h: 2.1
[1]; tumor / bone, read-out: tumor/organ ratio, Bone
  tissue to tissue ratio at 72 h: 5
[1]; tumor / large intestine (empty), read-out: tumor/organ ratio, Large intestine (empty)
  tissue to tissue ratio at 72 h: 2.1
[1]; tumor / muscle, read-out: tumor/organ ratio, Muscle
  tissue to tissue ratio at 72 h: 8.2
[1]; tumor / small intestine (empty), read-out: tumor/organ ratio, Small intestine (empty)
  tissue to tissue ratio at 72 h: 2.2
[1]; tumor / stomach (empty), read-out: tumor/organ ratio, Stomach (empty)
  tissue to tissue ratio at 72 h: 0.8
[1]; tumor/adrenals, read-out: tumor/organ ratio, Adrenals
  tissue to tissue ratio at 1.5 h: 2.9
[1]; [11]
  tissue to tissue ratio at 1.5 h: 2.7
  tissue to tissue ratio at 72 h: 97.5
[1]; tumor/bone, read-out: tumor/organ ratio, Bone
  tissue to tissue ratio at 1.5 h: 2.4
[1]; [12]
  tissue to tissue ratio at 1.5 h: 3
  tissue to tissue ratio at 72 h: 4.3
[1]; tumor/large intestine (empty), read-out: tumor/organ ratio, Large intestine (empty)
  tissue to tissue ratio at 1.5 h: 1.1
[1]; [13]
  tissue to tissue ratio at 1.5 h: 0.7
  tissue to tissue ratio at 72 h: 0.7
[1]; [14]
  tissue to tissue ratio at 1.5 h: 0.9
  tissue to tissue ratio at 72 h: 1.5
[1]; tumor/muscle, read-out: tumor/organ ratio, Muscle
  tissue to tissue ratio at 1.5 h: 6
[1]; [15]
  tissue to tissue ratio at 1.5 h: 6.7
  tissue to tissue ratio at 72 h: 6.3
[1]; tumor/small intestine (empty), read-out: tumor/organ ratio, Small intestine (empty)
  tissue to tissue ratio at 1.5 h: 2
[1]; [16]
  tissue to tissue ratio at 1.5 h: 1.6
  tissue to tissue ratio at 72 h: 1.1
[1]; tumor/stomach (empty), read-out: tumor/organ ratio, Stomach (empty)
  tissue to tissue ratio at 1.5 h: 0.8
[2]; 90 min p.i.
  tumor/organ ratio, Kidneys: 0.0
[2]; 3 d p.i.
  tumor/organ ratio, Kidneys: 0.0
